System: patients with locally advanced or metastatic urothelial cancer
Test: Same phase 2 study: safety (adverse events, NCI CTCAE v4.03)
Format: in vivo, human
Text: Safety assessments will be based on the information collected through the safety surveillance process and will include the data from recorded adverse events (AEs) including SAEs, recording of concomitant medication, physical examination findings, cardiac monitoring, and laboratory tests.
The assessment of safety during the course of this study will consist of the surveillance and recording of AEs including SAEs, recording of concomitant medication, and measurements of protocol-specified physical examination findings, cardiac monitoring, and laboratory tests.
AE severity should be graded using the National Cancer Institute's Common Terminology Criteria for Adverse Events (NCI CTCAE), Version 4.03. These criteria are provided in the study manual.
An overview of AEs will provide a tabulation of the incidence of all AEs, treatment-emergent AEs, treatment-related AEs, Grade 3 and higher AEs. SAEs, treatment-related SAEs, deaths, and AEs leading to study treatment discontinuation. Adverse events will be defined as treatment emergent if they are newly occurring or worsened following study treatment.
AEs will be classified by system organ class and preferred tem using the Medical Dictionary for Regulatory Activities (MedDRA) and graded using NCI CTCAE, Version 4.03.
The incidence of AEs will be summarized by system organ class, preferred term, severity and relationship to study drug. In the event of multiple occurrences of the same AE in one patient, the AE will be counted once as the occurrence for the maximum grade. AEs leading to premature discontinuation of study drug will be summarized and listed in the same manner.

[1] = Cohort 1 (N = 125), count (percent)

enfortumab vedotin: Nectin-4 directed ADC: fully human anti-nectin-4 IgG1 kappa antibody (AGS-22C3) conjugated to MMAE via protease-cleavable maleimidocaproyl valine-citrulline linker
AE of special interest, All Grade: Hyperglycemia (Cohort 1 (N = 125)): 20 (16) N (%)
AE of special interest, All Grade: IRR (Cohort 1 (N = 125)): 8 (6.4) N (%)
AE of special interest, All Grade: Ocular Events, Blurred Vision (Cohort 1 (N = 125)): 21 (16.8) N (%)
AE of special interest, All Grade: Ocular Events, Corneal Disorders (Cohort 1 (N = 125)): 18 (14.4) N (%)
AE of special interest, All Grade: Ocular Events, Dry Eye Disorders (Cohort 1 (N = 125)): 51 (40.8) N (%)
AE of special interest, All Grade: Peripheral Neuropathy (Cohort 1 (N = 125)): 70 (56) N (%)
AE of special interest, All Grade: Rash (Cohort 1 (N = 125)): 67 (53.6) N (%)
AE of special interest, ≥Gr 3: Hyperglycemia (Cohort 1 (N = 125)): 10 (8) N (%)
AE of special interest, ≥Gr 3: IRR (Cohort 1 (N = 125)): 1 (0.8) N (%)
AE of special interest, ≥Gr 3: Peripheral Neuropathy (Cohort 1 (N = 125)): 5 (4) N (%)
AE of special interest, ≥Gr 3: Rash (Cohort 1 (N = 125)): 15 (12.0) N (%)
Any TEAEs (Cohort 1 (N = 125)): 125 (100.0) n (%)
Any TEAEs leading to death (Cohort 1 (N = 125)): 7 (5.6) n (%)
Any TEAEs leading to treatment discontinuation (Cohort 1 (N = 125)): 21 (16.8) n (%)
Any grade 3-5 TEAEs (Cohort 1 (N = 125)): 92 (73.6) n (%)
Any serious TEAEs (Cohort 1 (N = 125)): 58 (46.4) n (%)
SAEs (All): Acute kidney injury (Cohort 1 (N = 125)): 4 (3.2) n (%)
SAEs (All): Cellulitis (Cohort 1 (N = 125)): 6 (4.8) n (%)
SAEs (All): Diarrhoea (Cohort 1 (N = 125)): 3 (2.4) n (%)
SAEs (All): Febrile neutropenia (Cohort 1 (N = 125)): 5 (4.0) n (%)
SAEs (All): Nausea (Cohort 1 (N = 125)): 3 (2.4) n (%)
SAEs (All): Overall (Cohort 1 (N = 125)): 59 (47.2) n (%)
SAEs (All): Pneumonia (Cohort 1 (N = 125)): 3 (2.4) n (%)
SAEs (All): Sepsis (Cohort 1 (N = 125)): 4 (3.2) n (%)
SAEs (All): Urinary tract infection (Cohort 1 (N = 125)): 6 (4.8) n (%)
SAEs (Related): Acute kidney injury (Cohort 1 (N = 125)): 1 (0.8) n (%)
SAEs (Related): Cellulitis (Cohort 1 (N = 125)): 2 (1.6) n (%)
SAEs (Related): Diarrhoea (Cohort 1 (N = 125)): 1 (0.8) n (%)
SAEs (Related): Febrile neutropenia (Cohort 1 (N = 125)): 5 (4.0) n (%)
SAEs (Related): Nausea (Cohort 1 (N = 125)): 3 (2.4) n (%)
SAEs (Related): Overall (Cohort 1 (N = 125)): 24 (19.2) n (%)
Treatment-related AE leading to discontinuation: Asthenia (Cohort 1 (N = 125)): 1 (0.8) n (%)
Treatment-related AE leading to discontinuation: Drug eruption (Cohort 1 (N = 125)): 1 (0.8) n (%)
Treatment-related AE leading to discontinuation: Enterocolitis (Cohort 1 (N = 125)): 1 (0.8) n (%)
Treatment-related AE leading to discontinuation: Fatigue (Cohort 1 (N = 125)): 1 (0.8) n (%)
Treatment-related AE leading to discontinuation: Hyperglycaemia (Cohort 1 (N = 125)): 1 (0.8) n (%)
Treatment-related AE leading to discontinuation: Interstitial lung disease (Cohort 1 (N = 125)): 1 (0.8) n (%)
Treatment-related AE leading to discontinuation: Overall (Cohort 1 (N = 125)): 15 (12.0) n (%)
Treatment-related AE leading to discontinuation: Peripheral sensory neuropathy (Cohort 1 (N = 125)): 8 (6.4) n (%)
Treatment-related AE leading to discontinuation: Stevens-Johnson syndrome (Cohort 1 (N = 125)): 1 (0.8) n (%)
Treatment-related TEAEs (Cohort 1 (N = 125)): 117 (93.6) n (%)
Treatment-related TEAEs (all grades): Alopecia (Cohort 1 (N = 125)): 62 (49.6) n (%)
Treatment-related TEAEs (all grades): Anaemia (Cohort 1 (N = 125)): 27 (21.6) n (%)
Treatment-related TEAEs (all grades): Aspartate aminotransferase increased (Cohort 1 (N = 125)): 17 (13.6) n (%)
Treatment-related TEAEs (all grades): Decreased appetite (Cohort 1 (N = 125)): 55 (44.0) n (%)
Treatment-related TEAEs (all grades): Diarrhoea (Cohort 1 (N = 125)): 41 (32.8) n (%)
Treatment-related TEAEs (all grades): Dry eye (Cohort 1 (N = 125)): 25 (20.0) n (%)
Treatment-related TEAEs (all grades): Dry skin (Cohort 1 (N = 125)): 30 (24.0) n (%)
Treatment-related TEAEs (all grades): Dysgeusia (Cohort 1 (N = 125)): 47 (37.6) n (%)
Treatment-related TEAEs (all grades): Fatigue (Cohort 1 (N = 125)): 62 (49.6) n (%)
Treatment-related TEAEs (all grades): Lacrimation increased (Cohort 1 (N = 125)): 21 (16.8) n (%)
Treatment-related TEAEs (all grades): Nausea (Cohort 1 (N = 125)): 50 (40.0) n (%)
Treatment-related TEAEs (all grades): Neutropenia (Cohort 1 (N = 125)): 13 (10.4) n (%)
Treatment-related TEAEs (all grades): Oedema peripheral (Cohort 1 (N = 125)): 15 (12.0) n (%)
Treatment-related TEAEs (all grades): Overall (Cohort 1 (N = 125)): 117 (93.6) n (%)
Treatment-related TEAEs (all grades): Peripheral sensory neuropathy (Cohort 1 (N = 125)): 50 (40.0) n (%)
Treatment-related TEAEs (all grades): Pruritus (Cohort 1 (N = 125)): 32 (25.6) n (%)
Treatment-related TEAEs (all grades): Rash maculo-papular (Cohort 1 (N = 125)): 28 (22.4) n (%)
Treatment-related TEAEs (all grades): Vomiting (Cohort 1 (N = 125)): 19 (15.2) n (%)
Treatment-related TEAEs (all grades): Weight decreased (Cohort 1 (N = 125)): 29 (23.2) n (%)
Treatment-related TEAEs leading to death (Cohort 1 (N = 125)): 0 n (%)
Treatment-related TEAEs leading to treatment discontinuation (Cohort 1 (N = 125)): 15 (12.0) n (%)
Treatment-related TEAEs ≥Grade 3: Acute kidney injury (Cohort 1 (N = 125)): 1 (0.8) n (%)
Treatment-related TEAEs ≥Grade 3: Amylase increased (Cohort 1 (N = 125)): 3 (2.4) n (%)
Treatment-related TEAEs ≥Grade 3: Anaemia (Cohort 1 (N = 125)): 9 (7.2) n (%)
Treatment-related TEAEs ≥Grade 3: Aspartate aminotransferase increased (Cohort 1 (N = 125)): 4 (3.2) n (%)
Treatment-related TEAEs ≥Grade 3: Decreased appetite (Cohort 1 (N = 125)): 1 (0.8) n (%)
Treatment-related TEAEs ≥Grade 3: Diarrhoea (Cohort 1 (N = 125)): 3 (2.4) n (%)
Treatment-related TEAEs ≥Grade 3: Fatigue (Cohort 1 (N = 125)): 8 (6.4) n (%)
Treatment-related TEAEs ≥Grade 3: Febrile neutropenia (Cohort 1 (N = 125)): 5 (4.0) n (%)
Treatment-related TEAEs ≥Grade 3: Hyperglycaemia (Cohort 1 (N = 125)): 5 (4.0) n (%)
Treatment-related TEAEs ≥Grade 3: Hyponatraemia (Cohort 1 (N = 125)): 3 (2.4) n (%)
Treatment-related TEAEs ≥Grade 3: Lipase increased (Cohort 1 (N = 125)): 5 (4.0) n (%)
Treatment-related TEAEs ≥Grade 3: Neutropenia (Cohort 1 (N = 125)): 10 (8.0) n (%)
Treatment-related TEAEs ≥Grade 3: Neutrophil count decreased (Cohort 1 (N = 125)): 3 (2.4) n (%)
Treatment-related TEAEs ≥Grade 3: Overall (Cohort 1 (N = 125)): 70 (56.0) n (%)
Treatment-related TEAEs ≥Grade 3: Peripheral sensory neuropathy (Cohort 1 (N = 125)): 2 (1.6) n (%)
Treatment-related TEAEs ≥Grade 3: Pruritus (Cohort 1 (N = 125)): 2 (1.6) n (%)
Treatment-related TEAEs ≥Grade 3: Rash erythematous (Cohort 1 (N = 125)): 4 (3.2) n (%)
Treatment-related TEAEs ≥Grade 3: Rash maculo-papular (Cohort 1 (N = 125)): 5 (4.0) n (%)
Treatment-related grade 3-5 TEAEs (Cohort 1 (N = 125)): 70 (56.9) n (%)
Treatment-related serious TEAEs (Cohort 1 (N = 125)): 24 (19.2) n (%)
TEAEs leading to death (excluding disease progression): Acute respiratory failure [1]: 1 (0.8)
TEAEs leading to death (excluding disease progression): Cardiac disorder [1]: 1 (0.8)
TEAEs leading to death (excluding disease progression): Overall [1]: 4 (3.2)
TEAEs leading to death (excluding disease progression): Pneumonia aspiration [1]: 1 (0.8)
TEAEs leading to death (excluding disease progression): Sepsis [1]: 1 (0.8)
AE of special interest, All Grade: Hyperglycemia (Cohort 2 (N = 89)): 16 (18) N (%)
AE of special interest, All Grade: IRR (Cohort 2 (N = 89)): 6 (6.7) N (%)

— patent US20230364254A1, “METHODS FOR TREATING CANCERS WITH ANTIBODY DRUG CONJUGATES (ADC) THAT BIND TO 191P4D12 PROTEINS” (priority 2020, published 2023)
